Measurements: patent US20220041711A1 (NGM BIOPHARMACEUTICALS, published 2022)
Changes are numbered by the printed parent chain.

T1: mouse LAIR-1 (form in the assay not stated) (mouse, UniProt Q8BG84 22-144, limits assumed)
T1 sequence: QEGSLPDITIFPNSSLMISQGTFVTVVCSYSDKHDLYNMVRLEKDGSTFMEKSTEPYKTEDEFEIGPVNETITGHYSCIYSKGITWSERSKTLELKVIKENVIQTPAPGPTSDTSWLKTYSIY

T2: human LAIR-2 (form in the assay not stated) (human, UniProt Q6ISS4 22-152)
T2 sequence: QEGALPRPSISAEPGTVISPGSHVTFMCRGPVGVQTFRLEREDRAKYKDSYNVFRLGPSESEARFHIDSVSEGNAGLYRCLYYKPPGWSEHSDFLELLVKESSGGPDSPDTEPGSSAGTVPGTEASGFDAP

T3: cyno LAIR-1-ECD (cynomolgus monkey)
T3 construct: Recombinant, expressed in mammalian cells; also called extracellular region of cyno LAIR-1
T3 chain: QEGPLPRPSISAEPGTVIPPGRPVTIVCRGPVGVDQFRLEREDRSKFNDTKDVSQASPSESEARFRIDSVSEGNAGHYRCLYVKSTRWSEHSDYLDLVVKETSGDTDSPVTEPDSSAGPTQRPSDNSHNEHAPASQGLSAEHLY

T4: human LAIR-1-ECD (human, UniProt Q6GTX8 22-165)
T4 construct: Recombinant, expressed in mammalian cells; also called extracellular region of human LAIR-1
T4 chain: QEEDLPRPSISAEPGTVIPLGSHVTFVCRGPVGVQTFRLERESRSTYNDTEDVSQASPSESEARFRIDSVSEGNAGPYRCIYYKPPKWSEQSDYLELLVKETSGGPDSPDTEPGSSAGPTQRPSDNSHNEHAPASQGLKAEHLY

B1: anti-LAIR-1 antibody ch47A1 (antibody, V domains shown)
VH: EVQLVESGGGLVQPKGSLKLSCAASGFTFNTYAIHWVRQAPGKGLEWVARIRSKSTNYATYYADSVKDRFTISRDDSQSMVFLQMNNLKTEDTAMYYCVRENWYYYALDYWGQGTSVTVSS
VL: DIQMTQSPASLSASVGETVTITCRASGNIHNYLTWYQQKQGKSPQVLVYNAKTLEDGVPSRFSGSESGTQYSLKINSLQPEDFGSYYCQHFWSTPFTFGSGTKLEIK
B2: anti-LAIR-1 antibody ch108D10 (antibody, V domains shown)
VH: EVQLVETGGGLVQPKGSLKLSCAASGFTFNINAMNWVRQAPGKGLEWVARIRTKNNNYATYYADSVKDRFTISRDDSESMLYLQMNNLKTEDTAMYYCVRDRYGGAMAYWGQGTSVTVSS
VL: DIQMTQSSSSFSVSLGDRVTITCKASEDIYNRLAWYQQKPGNVPRLLISSATSLETGVPSRFSGSGSGKDYTLSLTSLQSEDVATYYCQQYWTIPYTFGGGTKLEIK
B3: anti-LAIR-1 antibody 47A1 (antibody, V domains shown)
VH: B1 VH
VL: B1 VL
notes: Monoclonal antibody from immunized mice (hybridoma)
B4: anti-LAIR-1 antibody 108D10 (antibody, V domains shown)
VH: B2 VH
VL: B2 VL
notes: as for B3
B5: anti-LAIR-1 antibody 57D12 (antibody, V domains shown)
VH: QVQLQQSGAELARPGASVNLSCRASGYSFTSFGISWVKQRTGQGLEWIGEIYPRSDNTFYNEKFKGKATLTADKSSSTAYMELRSLTSEDSAVYFCARHFGSSSFDYWGQGTTLTVSS
VL: ENVLTQSPPIMAASLGQKVTMTCSASSSVSSIYFHWYQQKSGTSPKPLIHRASNLASGVPARFSGSGSGTSYSLTISSVEAEDDATYYCQQWSGYPLTFGGGTKLEIK
notes: as for B3
B6: anti-LAIR-1 antibody 62G10 (antibody, V domains shown)
VH: EVQLVETGGGLVQPKGSLKLSCATSGFTFNINAMNWVRQAPGKGLEWVARIRTKNNNFATYYADSVKDRFTISRDDSQSMLYLQMNNLKTEDTAMYYCVRGPYFDYWGQGTTLTVSS
VL: DIQMTQSPASQSASLGESVTITCLASQTIGTWLAWYQQKPGKSPQLLIYAATSLADGVPSRFSGSGSGTKFSFKISNLQAEDFVTYYCQQLYSTPYTFGGGTKLEIK
notes: as for B3
B7: anti-LAIR-1 antibody 47H1 (antibody, V domains shown)
VH: EVQLVETGGGLVQPKGSLKLSCAASGFTFNINAMNWVRQAPGKGLEWVARIRTKNNNYATFYADSVKDRFTISRDDSQSMLYLQMNNLKTDDTAMYYCVRDRAGFFAYWGQGTPVTVSA
VL: B6 VL with A34G, Q37R, N77S, T85I, Y96L, G100S
notes: as for B3
B8: anti-LAIR-1 antibody 61H4 (antibody, V domains shown)
VH: EVQLQQSGPEVLKPGASVKISCKASGYTFTDYYYMNWVKQSHGKSLEWIGYIYPNNGATSYNQKFKGKATLTVDKSSSTAYMELRSLTSEDSAVYYCARDGYSSNYYTMDYWGQGTSVTVSS
VL: DVQMIQSPSSLSASLGDIVTMTCQASQGTSINLNWFQQKPGKAPKLLIYGASNLEDGVPSRFSGSRYGTDFTLTISSLEDEDMATYFCLQHTYLPYTFGGGTKLEIK
notes: as for B3
B9: anti-LAIR-1 antibody ch61H4 (antibody, V domains shown)
VH: B8 VH
VL: B8 VL

Target: T5, human LAIR-1-CD3ζ chimeric receptor on NFAT-GFP reporter cells (human, UniProt P20963 31-164, limits assumed)
Assay: cell-based or functional assay

Row | IC50 (read off the curve): % GFP+ human LAIR-1 reporter cells on coated C1 complex [nM] | IC50 (read off the curve): % GFP+ human LAIR-1 reporter cells on coated COLEC12 [nM] | IC50 (read off the curve): % GFP+ human LAIR-1 reporter cells on coated MARCO-his [nM] | IC50 (read off the curve): % GFP+ human LAIR-1 reporter cells on coated MBL [nM] | IC50 (read off the curve): % GFP+ human LAIR-1 reporter cells on coated SP-D [nM] | IC50 (read off the curve): % GFP+ human LAIR-1 reporter cells on coated collagen 1 [nM] | IC50 (read off the curve): % GFP+ human LAIR-1 reporter cells on coated collagen 4 [nM] | Binder
1 | ~0.02 | ~0.1 | ~0.06 | ~0.2 | ~0.05 | ~0.05 | ~0.04 | B1
2 | ~0.01 | ~0.03 | ~0.03 | ~0.04 | ~0.02 | ~0.03 | ~0.02 | B2

Target: T1, mouse LAIR-1 (form in the assay not …)
Assay: not described

Row | binding result | Binder
3 | no binding | B3
4 | no binding | B4
5 | no binding | B5
6 | no binding | B6
7 | no binding | B7
8 | no binding | B8

Target: T5, human LAIR-1-CD3ζ chimeric receptor on …
Assay: cell-based or functional assay
Remark: another data set of the same source
Target sequence in this assay (P20963 other isoform, or with tags, fused parts or gaps mutant limits assumed): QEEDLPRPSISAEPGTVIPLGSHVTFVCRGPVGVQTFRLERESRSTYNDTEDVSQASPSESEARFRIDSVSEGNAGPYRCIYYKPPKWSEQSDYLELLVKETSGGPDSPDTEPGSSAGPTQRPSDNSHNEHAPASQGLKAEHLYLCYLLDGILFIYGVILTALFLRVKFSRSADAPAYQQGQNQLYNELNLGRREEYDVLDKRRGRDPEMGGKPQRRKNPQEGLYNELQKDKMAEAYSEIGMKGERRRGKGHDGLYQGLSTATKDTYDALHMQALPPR

Row | IC50 (read off the curve): % GFP+ human LAIR-1 reporter cells on coated MARCO-his [nM] | IC50 (read off the curve): % GFP+ human LAIR-1 reporter cells on coated collagen 1 [nM] | IC50 (read off the curve): % GFP+ human LAIR-1 reporter cells on coated collagen 4 [nM] | Binder
9 | ~0.04 | ~0.1 | ~0.08 | B1
10 | ~0.01 | ~0.05 | ~0.04 | B2
11 | ~0.8 | ~2 | ~1 | B9

Target: T2, human LAIR-2 (form in the assay not …)
Assay: ELISA and FACS screening

Row | binding result | Binder
12 | no binding | B3
13 | no binding | B4
14 | no binding | B5
15 | no binding | B6
16 | no binding | B7
17 | no binding | B8

Target: T3, cyno LAIR-1-ECD
Assay: SPR (Biacore); antibody captured by anti-Fc; LAIR-1-ECD injected;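 note: Anti-Fc immobilized on a CM5 chip, LAIR-1-ECD (human or cynomolgus) injected at 3.3-10 nM and 25 °C, kinetics fitted by simultaneous global fit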

Row | Kd [nM] | koff [s⁻¹] | kon [M⁻¹ s⁻¹] | Binder
18 | 18 | 0.0057 | 320000 | B3
19 | 21 | 0.0039 | 190000 | B4
20 | 7.3 | 0.00078 | 110000 | B5
21 | 5.1 | 0.001 | 200000 | B6
22 | 2.5 | 0.00044 | 180000 | B7
23 | 9.6 | 0.00077 | 80000 | B8

Target: T4, human LAIR-1-ECD
Assay: as above

Row | Kd [nM] | koff [s⁻¹] | kon [M⁻¹ s⁻¹] | Binder
24 | 0.92 | 0.00055 | 590000 | B3
25 | 0.4 | 0.00043 | 1.1e+06 | B4
26 | 0.27 | 4.5e-05 | 170000 | B5
27 | 0.32 | 0.00018 | 550000 | B6
28 | 0.087 | 0.0001 | 1.2e+06 | B7
29 | 0.46 | 4.9e-05 | 110000 | B8
